This test concerns the target Rabbit skeletal muscle actin (rabbit, UniProt P68135 1-377). The test can be described thus: co-sedimentation.

B1: Arp2/3 complex (complex)
chain 1: not shown
chain 2: not shown
chain 3: MSANIENFKDSAKLTCITCHAFNRDRTLIAICPNNNEVHIYQKQGAEWVKNAVLVEHDQAVTGIDWGHKENRIVTCSQDRNAYVWSLGADGKWKPTLVLLRITRAATHVKWSPNEEKFAVATGAKCVSVCYFEEANDWWVSKHIKLHKSTVLNVAWHPNNIFLATAASDFKARIFSAFIKGVDKRPENTPFGDKLPFGEMLAEYSCGGWVHGVSWSPSGEWLSFVSHDSAISFVNISTGREAVPQRLSLSGLPYRVLAFLNPTDIIAAGYDCNPALFRLSGQTWAFVKNVDESSAAARAAPGAAQSAMNMWQKKADLGTTSNETQLETKHQNAISGLTALAPNQFSTTAVDGKLIIWTVRA
chain 4: MILLETGSRILEEVIRQRVQSDKREAVDITLADFDGVQYHIATNATQRNLVTVSISWPCISQMKQFGTDAKVQSFYGPLVTSAETGYDYTLQFDLDNLADKDSLPGKIALFKRTVVAAPLEAVFDGKPGLPPVITINYRTNEAVYLKREGNNVAVIFSINFKDKDDIVIGKVFLQELEAARKTINNAPAVTFSQRERPLELKSVQNVYEGEDQGFVTFLLFGPHTHESRRGKTIDTIHLFRNYLHYHIKCSKAFLHTRMRLRVEELLQVLNRAKIKNANKEMKTMSGRTFKRA
chain 5: MCGMGVLPIKTKYKGPAPRYTGPADQPDIIDEAISFFKANVLFRNYEVKGPADRVLIYLTLYISQAINQMVNQSKGGAQKNLFNLAIQNFAVPGDKNFALAGFVSNPANRAEADQIRQYLTQLRQETGDRLIEAVYAFGENEPSKWWMCFSKRKFLNKNL
chain 6: METPEKPERSDAEFQQSLDARQREVNNALNTGNPGRALSAALQDPPLGCKNQQIRAVVNVLTSVKDADMQKNIDALSPTDLDTLMKYIYRGLEDGENSTSLLKWHEAVTKKGGLGCIVRALAERKAL
As for B1, the Kd (usually the equilibrium constant for the complex coming apart) came to 2.3 ± 0.3 µM and the “stoichiometry N” value was 1 actin monomer per Arp2/3-binding site.

(Values after PMC2134809 (The Journal of Cell Biology, 1997).)
